Columns and labels:
Experiment in all cases: purified protein
Conditions in all cases: Mg2+ as the activating cation
purified protein [1] = substrate: NC(=O)C1=CN([C@@H]2O[C@H](COP(=O)(O)OP(=O)(O)OC[C@H]3O[C@@H](n4cnc5c(N)ncnc54)[C@H](O)[C@@H]3O)[C@@H](O)[C@H]2O)C=CC1
purified protein [2] = substrate: NC(=O)c1ccc[n+]([C@@H]2O[C@H](COP(=O)([O-])O)[C@@H](O)[C@H]2O)c1
purified protein [3] = substrate: Nc1ncnc2c1ncn2[C@@H]1O[C@H](COP(=O)(O)O)[C@@H](O)[C@H]1O
purified protein [4] = substrate: NC(=O)c1ccc[n+]([C@@H]2O[C@H](COP(=O)(O)OP(=O)(O)OC[C@H]3O[C@@H](n4cnc5c(N)ncnc54)[C@H](O)[C@@H]3O)[C@@H](O)[C@H]2O)c1

B1: UshA (Escherichia coli K-12) (protein)
chain: YEQDKTYKITVLHTNDHHGHFWRNEYGEYGLAAQKTLVDGIRKEVAAEGGSVLLLSGGDINTGVPESDLQDAEPDFRGMNLVGYDAMAIGNHEFDNPLTVLRQQEKWAKFPLLSANIYQKSTGERLFKPWALFKRQDLKIAVIGLTTDDTAKIGNPEYFTDIEFRKPADEAKLVIQELQQTEKPDIIIAATHMGHYDNGEHGSNAPGDVEMARALPAGSLAMIVGGHSQDPVCMAAENKKQVDYVPGTPCKPDQQNGIWIVQAHEWGKYVGRADFEFRNGEMKMVNYQLIPVNLKKKVTWEDGKSERVLYTPEIAENQQMISLLSPFQNKGKAQLEVKIGETNGRLEGDRDKVRFVQTNMGRLILAAQMDRTGADFAVMSGGGIRDSIEAGDISYKNVLKVQPFGNVVVYADMTGKEVIDYLTAVAQMKPDSGAYPQFANVSFVAKDGKLNDLKIKGEPVDPAKTYRMATLNFNATGGDGYPRLDNKPGYVNTGFIDAEVLKAYIQKSSPLDVSVYEPKGEVSWQ
Protein B1 has a Km (purified protein [1]) of 7.0 ± 0.8 µM, a kcat (purified protein [1]) of 10.0 ± 0.2 s⁻¹ and a Km (purified protein [2]) of 11.1 ± 1.3 µM. For the same protein, the kcat (purified protein [2]) was 1492 ± 31 s⁻¹, the Km (purified protein [3]) was 1.2 ± 0.1 µM and the kcat (purified protein [3]) was 405 ± 4 s⁻¹. It also gave a Km (purified protein [4]) of 5.3 ± 0.6 µM and a kcat (purified protein [4]) of 19.3 ± 0.9 s⁻¹.
